Results from patent US20190338048A1.
Where two headings read alike, the source gives them in different places.

What was measured:
[1] = target: CR8071 lambda light chain S122D_E124Q_T131R (L1 of design 3974, system C); experiment: SMCA: H1, L1, H2, L2 co-expressed, protein A, LC-MS
[2] = target: CR8071 lambda light chain L1 S122D_Y178K (design 3954, System C); experiment: as above
[3] = target: CR8071 lambda light chain L1 S122D_K129T_S176E_Y178E (designs 3951 and 3967, System C); experiment: as above
[4] = target: CR8071 lambda light chain L1 S122D_K129T_S176E_Y178E (designs 3951 and 3967, System C); experiment: as above; remark: listed apart in the source
[5] = target: CR8071 lambda light chain L1 Y178K (design 3957, System C); experiment: as above
[6] = target: CR8071 lambda light chain L1, design 2892 (S176K_Y178K); experiment: SMCA: H1,L1,H2,L2 co-expressed, protein A, LC-MS
[7] = target: CR8071 lambda light chain L1, design 2994 (E124Q_T131K); experiment: SMCA: H1,L1,H2,L2 co-expressed, protein A, LC-MS
[8] = target: CR8071 lambda light chain L1, design 3025 (E124Q_T131R); experiment: SMCA: H1,L1,H2,L2 co-expressed, protein A, LC-MS
[9] = target: CR8071 lambda light chain L1, design 3122 (V133D_Y178T); experiment: SMCA: H1,L1,H2,L2 co-expressed, protein A, LC-MS
[10] = target: CR8071 lambda light chain L1, design 4320 (T116F_K129T_V133D_S176F); experiment: SMCA: H1,L1,H2,L2 co-expressed, protein A, LC-MS
[11] = target: Pertuzumab light chain (kappa) V133G_S176D_T180E, HA-tagged; experiment: LCCA
[12] = target: Pertuzumab light chain (kappa) V133G_S176D_T178E, HA-tagged; experiment: LCCA
[13] = target: Pertuzumab light chain (kappa) V133G_S176D_T180E, HA-tagged; experiment: LCCA; remark: listed apart in the source
[14] = target: Pertuzumab light chain (kappa) V133G_S176D_T178E, HA-tagged; experiment: LCCA; remark: listed apart in the source
[15] = target: Pertuzumab light chain (kappa) V133G_S176D_T180E, HA-tagged; experiment: LCCA; remark: listed apart in the source
[16] = target: SGN-CD19a kappa light chain L2 S121K_S131K_S176K (design 3951); experiment: SMCA: H1, L1, H2, L2 co-expressed, protein A, LC-MS
[17] = target: SGN-CD19a kappa light chain L2 Q124E_V133D_L135W (design 3972, Systems B and C); experiment: as above
[18] = target: SGN-CD19a kappa light chain L2 Q124E_V133D_T180D (design 3971, Systems B and C); experiment: as above
[19] = target: SGN-CD19a kappa light chain L2 Q124E_V133D_L135W (design 3972, Systems B and C); experiment: as above; remark: listed apart in the source
[20] = target: SGN-CD19a kappa light chain L2 Q124E_V133D_T180D (design 3971, Systems B and C); experiment: as above; remark: listed apart in the source
[21] = target: SGN-CD19a kappa light chain L2 Q124E_V133D_T178E (design 3957, Systems B and C); experiment: as above
[22] = target: SGN-CD19a kappa light chain L2 Q124E_V133D_T178E (design 3957, Systems B and C); experiment: as above; remark: listed apart in the source
[23] = target: SGN-CD19a kappa light chain L2 S121K_S176E_T178E (design 3954, Systems B and C); experiment: as above
[24] = target: SGN-CD19a kappa light chain L2 S121K_S176E_T178E (design 3954, Systems B and C); experiment: as above; remark: listed apart in the source
[25] = target: SGN-CD19a kappa light chain L2, design 3025 (S131D_V133G_T178F); experiment: SMCA: H1,L1,H2,L2 co-expressed, protein A, LC-MS
[26] = target: SGN-CD19a kappa light chain L2, design 3025 (S131D_V133G_T178F); experiment: SMCA: H1,L1,H2,L2 co-expressed, protein A, LC-MS; remark: listed apart in the source
[27] = target: SGN-CD19a kappa light chain L2, design 4320 (Q124K_L135A_T178R); experiment: SMCA: H1,L1,H2,L2 co-expressed, protein A, LC-MS
[28] = target: SGN-CD19a kappa light chain L2, designs 2892 and 2994 (Q124E_V133D); experiment: SMCA: H1,L1,H2,L2 co-expressed, protein A, LC-MS
[29] = target: SGN-CD19a kappa light chain L2, designs 2892 and 2994 (Q124E_V133D); experiment: SMCA: H1,L1,H2,L2 co-expressed, protein A, LC-MS; remark: listed apart in the source
[30] = target: SGN-CD19a kappa light chain L2, designs 2892 and 2994 (Q124E_V133D); experiment: SMCA: H1,L1,H2,L2 co-expressed, protein A, LC-MS; remark: listed apart in the source
[31] = target: SGN-CD19a kappa light chain L2, designs 2892 and 2994 (Q124E_V133D); experiment: SMCA: H1,L1,H2,L2 co-expressed, protein A, LC-MS; remark: listed apart in the source
[32] = target: SGN-CD19a kappa light chain V133G_L135W_S176D_T180E (L2 of design 3987, systems B and C); experiment: SMCA: H1, L1, H2, L2 co-expressed, protein A, LC-MS
[33] = target: SGN-CD19a kappa light chain V133G_L135W_S176D_T180E (L2 of design 3987, systems B and C); experiment: as above; remark: listed apart in the source
[34] = target: SGN-CD19a kappa light chain S121K_Q124E_V133D (L2 of design 3974, systems B and C); experiment: as above
[35] = target: SGN-CD19a kappa light chain S121K_Q124E_V133D (L2 of design 3974, systems B and C); experiment: as above; remark: listed apart in the source
[36] = target: SGN-CD19a kappa light chain Q124E_V133D_L135A (L2 of design 3980, system B); experiment: as above
[37] = target: SGN-CD19a kappa light chain S121K_V133I_S176D_T178E (L2 of design 3997, system B); experiment: as above

CR8071 heavy chain A125R_L143D_K145T (H1 of design 3974, system C)
% H1L1 Pairing [1]: 59.9%
Change in % H1L1 Pairing with respect to wild type [1]: 11.5%

CR8071 heavy chain H1 A125R_K145T_S188E (design 3954, System C)
% H1L1 Pairing [2]: 89%
Change in % H1L1 Pairing with respect to wild type [2]: 40.6%

CR8071 heavy chain H1 A125R_S188K (designs 3951 and 3967, System C)
% H1L1 Pairing [3]: 97.5%
Change in % H1L1 Pairing with respect to wild type [3]: 29.4%
% H1L1 Pairing [4]: 96.7%
Change in % H1L1 Pairing with respect to wild type [4]: 28.6%

CR8071 heavy chain H1 K145T_S188E (design 3957, System C)
% H1L1 Pairing [5]: 87.2%
Change in % H1L1 Pairing with respect to wild type [5]: 38.8%

CR8071 heavy chain H1, design 2892 (K145T_V177D_S188D)
% H1L1 Pairing [6]: 41.5%
Change in % H1L1 Pairing with respect to wild type [6]: -6.9%

CR8071 heavy chain H1, design 2994 (L143E_K145T_Q179E)
% H1L1 Pairing [7]: 26.3%
Change in % H1L1 Pairing with respect to wild type [7]: -22.1%

CR8071 heavy chain H1, design 3025 (L143D_K145T)
% H1L1 Pairing [8]: 43.9%
Change in % H1L1 Pairing with respect to wild type [8]: -4.5%

CR8071 heavy chain H1, design 3122 (S186K_S188T)
% H1L1 Pairing [9]: 65.8%
Change in % H1L1 Pairing with respect to wild type [9]: -16.5%

CR8071 heavy chain H1, design 4320 (L143K_F174G)
% H1L1 Pairing [10]: 96.6%
Change in % H1L1 Pairing with respect to wild type [10]: 14.3%

Pertuzumab heavy chain Fab construct L124R_Q179K
H2L2:H2L1 normalized median scalar value ln(r1/f1) [11]: 0.63
H2L2:H2L1 normalized median scalar value ln(r1/f1) [12]: 0.77
H2L2:H2L1 normalized median scalar value ln(r1/f1) [13]: 0.95
H2L2:H2L1 normalized median scalar value ln(r1/f1) [14]: 0.69
H2L2:H2L1 normalized median scalar value ln(r1/f1) [15]: 0.97

Pertuzumab heavy chain Fab construct L124R_S186R
H2L2:H2L1 normalized median scalar value ln(r1/f1) [11]: 1.21
H2L2:H2L1 normalized median scalar value ln(r1/f1) [12]: 1.04
H2L2:H2L1 normalized median scalar value ln(r1/f1) [13]: 1.5
H2L2:H2L1 normalized median scalar value ln(r1/f1) [14]: 1.18
H2L2:H2L1 normalized median scalar value ln(r1/f1) [15]: 1.47

SGN-CD19a heavy chain H2 K145T_S186E_K228D (design 3951)
% H2L2 Pairing [16]: 97.1%
Change in % H2L2 Pairing with respect to wild type [16]: 25.8%

SGN-CD19a heavy chain H2 L143R (designs 3971 and 3972, Systems B and C)
% H2L2 Pairing [17]: 99.7%
Change in % H2L2 Pairing with respect to wild type [17]: 45.5%
% H2L2 Pairing [18]: 99.3%
Change in % H2L2 Pairing with respect to wild type [18]: 45.1%
% H2L2 Pairing [19]: 99.8%
Change in % H2L2 Pairing with respect to wild type [19]: 20.2%
% H2L2 Pairing [20]: 99.8%
Change in % H2L2 Pairing with respect to wild type [20]: 20.2%

SGN-CD19a heavy chain H2 L143R_S188K (design 3957, Systems B and C)
% H2L2 Pairing [21]: 85.4%
Change in % H2L2 Pairing with respect to wild type [21]: 31.2%
% H2L2 Pairing [22]: 99.7%
Change in % H2L2 Pairing with respect to wild type [22]: 20.1%

SGN-CD19a heavy chain H2 S188K_K228D (design 3954, Systems B and C)
% H2L2 Pairing [23]: 61.8%
Change in % H2L2 Pairing with respect to wild type [23]: 7.6%
% H2L2 Pairing [24]: 98.7%
Change in % H2L2 Pairing with respect to wild type [24]: 19.1%

SGN-CD19a heavy chain H2, design 3025 (S188K)
% H2L2 Pairing [25]: 87.9%
Change in % H2L2 Pairing with respect to wild type [25]: 33.7%
% H2L2 Pairing [26]: 99.7%
Change in % H2L2 Pairing with respect to wild type [26]: 20.1%

SGN-CD19a heavy chain H2, design 4320 (L143E_K145T_Q179E_V190F)
% H2L2 Pairing [27]: 81.4%
Change in % H2L2 Pairing with respect to wild type [27]: 21.5%

SGN-CD19a heavy chain H2, designs 2892 and 2994 (L143K)
% H2L2 Pairing [28]: 94.3%
Change in % H2L2 Pairing with respect to wild type [28]: 40.1%
% H2L2 Pairing [29]: 99.6%
Change in % H2L2 Pairing with respect to wild type [29]: 20%
% H2L2 Pairing [30]: 99.2%
Change in % H2L2 Pairing with respect to wild type [30]: 45%
% H2L2 Pairing [31]: 99.7%
Change in % H2L2 Pairing with respect to wild type [31]: 20.1%

SGN-CD19a heavy chain L124R_S186K (H2 of design 3987, systems B and C)
% H2L2 Pairing [32]: 98.1%
Change in % H2L2 Pairing with respect to wild type [32]: 43.9%
% H2L2 Pairing [33]: 99.3%
Change in % H2L2 Pairing with respect to wild type [33]: 19.7%

SGN-CD19a heavy chain L143R_K228D (H2 of design 3974, systems B and C)
% H2L2 Pairing [34]: 92.6%
Change in % H2L2 Pairing with respect to wild type [34]: 38.4%
% H2L2 Pairing [35]: 99.8%
Change in % H2L2 Pairing with respect to wild type [35]: 20.2%

SGN-CD19a heavy chain L143R_V190F (H2 of design 3980, system B)
% H2L2 Pairing [36]: 82.6%
Change in % H2L2 Pairing with respect to wild type [36]: 28.4%

SGN-CD19a heavy chain S188K_K228D (H2 of design 3997, system B)
% H2L2 Pairing [37]: 53%
Change in % H2L2 Pairing with respect to wild type [37]: -1.2%
